How the values were obtained:
[1] = system: HeLa Kyoto; assay: solubility in G1/S (NP-40 vs SDS abundance) (log2 ratio); higher = more soluble; details: cell cycle stage: G1/S
[2] = system: HeLa Kyoto; assay: solubility change mitosis vs G1/S (difference of NP-40 vs SDS log2 ratios) (log2 ratio difference); higher = more soluble in mitosis
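For solubility change mitosis vs G1/S (difference of NP-40 vs SDS log2 ratios) in this document: synchronized HeLa Kyoto cells (double thymidine block for G1/S, nocodazole release for mitosis), protein amounts in NP-40 versus SDS lysates quantified by mass spectrometry, three biological replicates.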
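For solubility in G1/S (NP-40 vs SDS abundance) in this document: HeLa Kyoto cells arrested at G1/S by double thymidine block, proteins quantified by TMT10plex mass spectrometry in mild NP-40 versus SDS extracts, three biological replicates.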

Sequence of MAST2 (chain, as listed by the source): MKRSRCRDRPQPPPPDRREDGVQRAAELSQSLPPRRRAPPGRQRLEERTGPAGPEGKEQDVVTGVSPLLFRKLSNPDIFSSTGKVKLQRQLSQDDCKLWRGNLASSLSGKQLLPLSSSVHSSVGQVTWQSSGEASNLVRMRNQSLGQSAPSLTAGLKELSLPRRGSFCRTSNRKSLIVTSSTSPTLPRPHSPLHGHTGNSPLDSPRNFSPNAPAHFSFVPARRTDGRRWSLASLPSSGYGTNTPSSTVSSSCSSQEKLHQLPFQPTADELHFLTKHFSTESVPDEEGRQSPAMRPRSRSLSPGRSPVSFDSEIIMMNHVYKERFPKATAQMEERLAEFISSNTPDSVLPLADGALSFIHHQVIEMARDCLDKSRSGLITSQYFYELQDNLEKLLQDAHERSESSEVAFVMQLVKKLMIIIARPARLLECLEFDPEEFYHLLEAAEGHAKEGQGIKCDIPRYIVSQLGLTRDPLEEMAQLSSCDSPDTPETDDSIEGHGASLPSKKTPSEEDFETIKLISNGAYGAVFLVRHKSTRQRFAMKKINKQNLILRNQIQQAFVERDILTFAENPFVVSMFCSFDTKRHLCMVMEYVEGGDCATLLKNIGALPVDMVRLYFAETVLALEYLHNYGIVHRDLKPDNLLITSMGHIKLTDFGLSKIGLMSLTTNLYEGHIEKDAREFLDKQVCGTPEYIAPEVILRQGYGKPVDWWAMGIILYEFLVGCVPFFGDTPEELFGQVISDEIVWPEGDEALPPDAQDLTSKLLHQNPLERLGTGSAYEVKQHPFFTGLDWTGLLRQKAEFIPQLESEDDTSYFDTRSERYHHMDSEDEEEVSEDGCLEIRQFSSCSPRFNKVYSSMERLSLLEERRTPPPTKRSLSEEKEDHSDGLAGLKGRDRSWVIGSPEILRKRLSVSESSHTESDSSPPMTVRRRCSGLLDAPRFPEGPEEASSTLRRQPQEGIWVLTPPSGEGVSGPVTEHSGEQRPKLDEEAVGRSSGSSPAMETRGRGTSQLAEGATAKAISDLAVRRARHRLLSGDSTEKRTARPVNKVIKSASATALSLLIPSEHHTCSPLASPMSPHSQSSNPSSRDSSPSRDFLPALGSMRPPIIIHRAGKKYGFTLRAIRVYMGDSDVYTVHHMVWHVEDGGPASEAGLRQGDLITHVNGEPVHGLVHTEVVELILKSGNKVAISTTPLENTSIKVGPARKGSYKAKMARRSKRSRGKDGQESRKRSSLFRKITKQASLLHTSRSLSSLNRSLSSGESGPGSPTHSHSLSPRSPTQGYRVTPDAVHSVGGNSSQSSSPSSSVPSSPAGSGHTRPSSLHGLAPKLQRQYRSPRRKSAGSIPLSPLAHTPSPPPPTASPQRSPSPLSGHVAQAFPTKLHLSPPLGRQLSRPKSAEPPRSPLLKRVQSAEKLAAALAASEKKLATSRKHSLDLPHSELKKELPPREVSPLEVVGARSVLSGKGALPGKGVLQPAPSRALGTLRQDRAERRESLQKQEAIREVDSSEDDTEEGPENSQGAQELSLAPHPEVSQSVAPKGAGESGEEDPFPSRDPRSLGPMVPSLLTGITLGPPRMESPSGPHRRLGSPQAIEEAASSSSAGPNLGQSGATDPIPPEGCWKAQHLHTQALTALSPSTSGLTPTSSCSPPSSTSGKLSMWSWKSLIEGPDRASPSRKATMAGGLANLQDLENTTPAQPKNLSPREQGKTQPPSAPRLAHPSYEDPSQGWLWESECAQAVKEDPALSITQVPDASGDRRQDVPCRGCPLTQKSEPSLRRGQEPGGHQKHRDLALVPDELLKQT
Sequence of NCOA2 (chain, as listed by the source): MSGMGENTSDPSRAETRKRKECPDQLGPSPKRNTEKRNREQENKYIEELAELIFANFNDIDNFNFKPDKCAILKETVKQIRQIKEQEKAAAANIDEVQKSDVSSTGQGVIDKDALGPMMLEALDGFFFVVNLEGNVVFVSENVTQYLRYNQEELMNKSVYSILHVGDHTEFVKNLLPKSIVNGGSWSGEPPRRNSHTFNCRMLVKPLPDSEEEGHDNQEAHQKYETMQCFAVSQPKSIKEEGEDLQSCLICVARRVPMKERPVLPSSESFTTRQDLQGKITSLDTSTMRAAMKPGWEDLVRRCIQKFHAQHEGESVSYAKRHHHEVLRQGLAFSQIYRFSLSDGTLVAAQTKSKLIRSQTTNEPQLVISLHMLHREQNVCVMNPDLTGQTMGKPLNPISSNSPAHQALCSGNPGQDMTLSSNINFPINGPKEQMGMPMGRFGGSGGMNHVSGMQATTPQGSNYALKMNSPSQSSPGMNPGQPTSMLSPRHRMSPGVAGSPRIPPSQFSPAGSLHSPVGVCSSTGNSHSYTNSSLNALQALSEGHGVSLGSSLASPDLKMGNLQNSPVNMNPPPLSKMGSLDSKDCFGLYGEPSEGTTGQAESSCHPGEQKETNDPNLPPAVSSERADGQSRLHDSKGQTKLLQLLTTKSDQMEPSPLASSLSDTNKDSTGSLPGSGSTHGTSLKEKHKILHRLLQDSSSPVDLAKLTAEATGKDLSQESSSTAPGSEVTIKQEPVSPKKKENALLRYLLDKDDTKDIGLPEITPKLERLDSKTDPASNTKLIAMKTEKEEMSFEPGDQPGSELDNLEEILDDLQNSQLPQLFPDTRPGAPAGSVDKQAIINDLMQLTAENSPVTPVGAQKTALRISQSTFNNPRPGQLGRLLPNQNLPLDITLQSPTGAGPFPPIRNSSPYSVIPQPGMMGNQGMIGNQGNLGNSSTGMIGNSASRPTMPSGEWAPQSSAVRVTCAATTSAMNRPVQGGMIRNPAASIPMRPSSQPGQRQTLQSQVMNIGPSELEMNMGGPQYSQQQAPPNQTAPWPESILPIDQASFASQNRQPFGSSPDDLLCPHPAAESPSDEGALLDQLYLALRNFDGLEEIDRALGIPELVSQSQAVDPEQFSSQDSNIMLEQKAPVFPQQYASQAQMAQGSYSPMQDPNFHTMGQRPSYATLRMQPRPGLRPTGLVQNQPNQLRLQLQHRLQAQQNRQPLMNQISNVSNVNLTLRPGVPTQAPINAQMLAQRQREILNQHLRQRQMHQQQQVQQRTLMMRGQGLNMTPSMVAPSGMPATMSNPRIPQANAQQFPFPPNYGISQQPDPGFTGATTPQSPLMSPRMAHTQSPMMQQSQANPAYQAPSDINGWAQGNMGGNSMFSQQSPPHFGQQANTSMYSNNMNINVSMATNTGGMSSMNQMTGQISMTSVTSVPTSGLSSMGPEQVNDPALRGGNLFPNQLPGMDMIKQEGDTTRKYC

| Substance | solubility in G1/S (log2) [1] | solubility change mitosis (log2) [2] |
| --- | --- | --- |
| MLRTAMGLRSWLAAPWGALPPRPPLLLLLLLLLLLQPPPPTWALSPRISLPLGSEERPFLRFEAEHISNYTALLLSRDGRTLYVGAREALFALSSNLSFLPGGEYQELLWGADAEKKQQCSFKGKDPQRDCQNYIKILLPLSGSHLFTCGTAAFSPMCTYINMENFTLARDEKGNVLLEDGKGRCPFDPNFKSTALVVDGELYTGTVSSFQGNDPAISRSQSLRPTKTESSLNWLQDPAFVASAYIPESLGSLQGDDDKIYFFFSETGQEFEFFENTIVSRIARICKGDEGGERVLQQRWTSFLKAQLLCSRPDDGFPFNVLQDVFTLSPSPQDWRDTLFYGVFTSQWHRGTTEGSAVCVFTMKDVQRVFSGLYKEVNRETQQWYTVTHPVPTPRPGACITNSARERKINSSLQLPDRVLNFLKDHFLMDGQVRSRMLLLQPQARYQRVAVHRVPGLHHTYDVLFLGTGDGRLHKAVSVGPRVHIIEELQIFSSGQPVQNLLLDTHRGLLYAASHSGVVQVPMANCSLYRSCGDCLLARDPYCAWSGSSCKHVSLYQPQLATRPWIQDIEGASAKDLCSASSVVSPSFVPTGEKPCEQVQFQPNTVNTLACPLLSNLATRLWLRNGAPVNASASCHVLPTGDLLLVGTQQLGEFQCWSLEEGFQQLVASYCPEVVEDGVADQTDEGGSVPVIISTSRVSAPAGGKASWGADRSYWKEFLVMCTLFVLAVLLPVLFLLYRHRNSMKVFLKQGECASVHPKTCPVVLPPETRPLNGLGPPSTPLDHRGYQSLSDSPPGSRVFTESEKRPLSIQDSFVEVSPVCPRPRVRLGSEIRDSVV [SEMA4B] | 0.234 | -0.0944 |
| MGRKKIQIQRITDERNRQVTFTKRKFGLMKKAYELSVLCDCEIALIIFNHSNKLFQYASTDMDKVLLKYTEYNEPHESRTNADIIETLRKKGFNGCDSPEPDGEDSLEQSPLLEDKYRRASEELDGLFRRYGSTVPAPNFAMPVTVPVSNQSSLQFSNPSGSLVTPSLVTSSLTDPRLLSPQQPALQRNSVSPGLPQRPASAGAMLGGDLNSANGACPSPVGNGYVSARASPGLLPVANGNSLNKVIPAKSPPPPTHSTQLGAPSRKPDLRVITSQAGKGLMHHLTEDHLDLNNAQRLGVSQSTHSLTTPVVSVATPSLLSQGLPFSSMPTAYNTDYQLTSAELSSLPAFSSPGGLSLGNVTAWQQPQQPQQPQQPQPPQQQPPQPQQPQPQQPQQPQQPPQQQSHLVPVSLSNLIPGSPLPHVGAALTVTTHPHISIKSEPVSPSRERSPAPPPPAVFPAARPEPGDGLSSPAGGSYETGDRDDGRGDFGPTLGLLRPAPEPEAEGSAVKRMRLDTWTLK [MEF2D] | 0.219 | 0.0539 |
| MERPSLRALLLGAAGLLLLLLPLSSSSSSDTCGPCEPASCPPLPPLGCLLGETRDACGCCPMCARGEGEPCGGGGAGRGYCAPGMECVKSRKRRKGKAGAAAGGPGVSGVCVCKSRYPVCGSDGTTYPSGCQLRAASQRAESRGEKAITQVSKGTCEQGPSIVTPPKDIWNVTGAQVYLSCEVIGIPTPVLIWNKVKRGHYGVQRTELLPGDRDNLAIQTRGGPEKHEVTGWVLVSPLSKEDAGEYECHASNSQGQASASAKITVVDALHEIPVKKGEGAEL [IGFBP7] | 0.0794 | 0.407 |
| MAKSPENSTLEEILGQYQRSLREHASRSIHQLTCALKEGDVTIGEDAPNLSFSTSVGNEDARTAWPELQQSHAVNQLKDLLRQQADKESEVSPSRRRKMSPLRSLEHEETNMPTMHDLVHTINDQSQYIHHLEAEVKFCKEELSGMKNKIQVVVLENEGLQQQLKSQRQEETLREQTLLDASGNMHNSWITTGEDSGVGETSKRPFSHDNADFGKAASAGEQLELEKLKLTYEEKCEIEESQLKFLRNDLAEYQRTCEDLKEQLKHKEFLLAANTCNRVGGLCLKCAQHEAVLSQTHTNVHMQTIERLVKERDDLMSALVSVRSSLADTQQREASAYEQVKQVLQISEEANFEKTKALIQCDQLRKELERQAERLEKELASQQEKRAIEKDMMKKEITKEREYMGSKMLILSQNIAQLEAQVEKVTKEKISAINQLEEIQSQLASREMDVTKVCGEMRYQLNKTNMEKDEAEKEHREFRAKTNRDLEIKDQEIEKLRIELDESKQHLEQEQQKAALAREECLRLTELLGESEHQLHLTRQEKDSIQQSFSKEAKAQALQAQQREQELTQKIQQMEAQHDKTENEQYLLLTSQNTFLTKLKEECCTLAKKLEQISQKTRSEIAQLSQEKRYTYDKLGKLQRRNEELEEQCVQHGRVHETMKQRLRQLDKHSQATAQQLVQLLSKQNQLLLERQSLSEEVDRLRTQLPSMPQSDC [SDCCAG8] | 0.52 | 0.0872 |
| MAST2 | 0.087 | -0.172 |
| NCOA2 | 0.178 | -0.129 |
| MDQFGDILEGEVDHSFFDSDFEEGKKCETNSVFDKQNDDPKERIDKDTKNVNSNTGMQTTENYLTEKGNERNVKFPPEHPVENDVTQTVSSFSLPASSRSKKLCDVTTGLKIHVSIPNRIPKIVKEGEDDYYTDGEESSDDGKKYHVKSKSAKPSTNVKKSIRKKYCKVSSSSSSSLSSSSSGSGTDCLDAGSDSHLSDSSPSSKSSKKHVSGITLLSPKHKYKSGIKSTETQPSSTTPKCGHYPEESEDTVTDVSPLSTPDISPLQSFELGIANDQKVKIKKQENVSQEIYEDVEDLKNNSKYLKAAKKGKEKHEPDVSSKSSSVLDSSLDHRHKQKVLHDTMDLNHLLKAFLQLDKKGPQKHHFDQPSVAPGKNYSFTREEVRQIDRENQRLLKELSRQAEKPGSKSTIPRSADHPPKLYHSALNRQKEQQRIERENLALLKRLEAVKPTVGMKRSEQLMDYHRNMGYLNSSPLSRRARSTLGQYSPLRASRTSSATSGLSCRSERSAVDPSSGHPRRRPKPPNVRTAWL [CFAP97] | 0.0651 | -0.039 |
| MGCAPSIHISERLVAEDAPSPAAPPLSSGGPRLPQGQKTAALPRTRGAGLLESELRDGSGKKVAVADVQFGPMRFHQDQLQVLLVFTKEDNQCNGFCRACEKAGFKCTVTKEAQAVLACFLDKHHDIIIIDHRNPRQLDAEALCRSIRSSKLSENTVIVGVVRRVDREELSVMPFISAGFTRRYVENPNIMACYNELLQLEFGEVRSQLKLRACNSVFTALENSEDAIEITSEDRFIQYANPAFETTMGYQSGELIGKELGEVPINEKKADLLDTINSCIRIGKEWQGIYYAKKKNGDNIQQNVKIIPVIGQGGKIRHYVSIIRVCNGNNKAEKISECVQSDTHTDNQTGKHKDRRKGSLDVKAVASRATEVSSQRRHSSMARIHSMTIEAPITKVINIINAAQESSPMPVTEALDRVLEILRTTELYSPQFGAKDDDPHANDLVGGLMSDGLRRLSGNEYVLSTKNTQMVSSNIITPISLDDVPPRIARAMENEEYWDFDIFELEAATHNRPLIYLGLKMFARFGICEFLHCSESTLRSWLQIIEANYHSSNPYHNSTHSADVLHATAYFLSKERIKETLDPIDEVAALIAATIHDVDHPGRTNSFLCNAGSELAILYNDTAVLESHHAALAFQLTTGDDKCNIFKNMERNDYRTLRQGIIDMVLATEMTKHFEHVNKFVNSINKPLATLEENGETDKNQEVINTMLRTPENRTLIKRMLIKCADVSNPCRPLQYCIEWAARISEEYFSQTDEEKQQGLPVVMPVFDRNTCSIPKSQISFIDYFITDMFDAWDAFVDLPDLMQHLDNNFKYWKGLDEMKLRNLRPPPE [PDE8A] | -0.192 | -0.222 |
| MEFLLGNPFSTPVGQCLEKATDGSLQSEDWTLNMEICDIINETEEGPKDAIRALKKRLNGNRNYREVMLALTVLETCVKNCGHRFHILVANRDFIDSVLVKIISPKNNPPTIVQDKVLALIQAWADAFRSSPDLTGVVHIYEELKRKGVEFPMADLDALSPIHTPQRSVPEVDPAATMPRSQSQQRTSAGSYSSPPPAPYSAPQAPALSVTGPITANSEQIARLRSELDVVRGNTKVMSEMLTEMVPGQEDSSDLELLQELNRTCRAMQQRIVELISRVSNEEVTEELLHVNDDLNNVFLRYERFERYRSGRSVQNASNGVLNEVTEDNLIDLGPGSPAVVSPMVGNTAPPSSLSSQLAGLDLGTESVSGTLSSLQQCNPRDGFDMFAQTRGNSLAEQRKTVTYEDPQAVGGLASALDNRKQSSEGIPVAQPSVMDDIEVWLRTDLKGDDLEEGVTSEEFDKFLEERAKAAEMVPDLPSPPMEAPAPASNPSGRKKPERSEDALFAL [TOM1L2] | 0.292 | -0.0085 |

From the supplement of paper PMC5998384
